Test results as given in the supplement of paper PMC11780869.

Tested on: Bacillus subtilis
Assay: cleaved RNA product abundance (RNA/gDNA barcode ratio) relative to median wild-type variant (ratio to wild type); higher = more accumulation of the downstream cleavage product
Settings: cleavage site: cggR-gapA (positions -7 to +36 mutated)
Procedure, shortened: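 Cleaved product abundance for each construct is its RNA-to-gDNA barcode ratio, scaled to the median construct carrying the unmutated site. Cleaved RNA was isolated on a gel, reverse transcribed and barcode-sequenced, with genomic DNA barcodes sequenced alongside and UMIs collapsed. The reporters were truncated aprE or tetM mRNAs with barcoded, mutagenized RNase Y cleavage-site windows integrated into the B. subtilis chromosome, and cultures grew in LB at 37°C from OD600 0.0003 to 0.3.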

[1] = experiment (reporter, strain, medium): exp 2b: truncated aprE reporter, strain BJT200
[2] = experiment (reporter, strain, medium): exp 4a: truncated aprE reporter, strain BJT201 with 2% xylose (RNase J1 expressed)
[3] = experiment (reporter, strain, medium): exp 6: tetM reporter, strain 168

With “ACAGACGAAGGAGCCGCAAAGAAGTTATTACGGGATGAATAATCCCTCAATATAAATATCTCTCACTTATTTAAA” the “cleaved RNA product abundance” value [1] was 0.32, the “cleaved RNA product abundance” value [2] was 0.46 and the “cleaved RNA product abundance” value [3] was 0.453.

For “ACAGACGAAGGAGCCGCAAAGAAGTTATTACGGGATGAATAATCCCTCAATATAAATATTTCTCACTTATTTAAA”, the “cleaved RNA product abundance” value [2] was 0.399.

With “ACAGACGAAGGAGCCGCAAAGAAGTTATTACGGGATGAATAATCCCTCAATATAAATCTCTCTCACTTATTTAAA” the “cleaved RNA product abundance” value [2] was 0.368.

With “ACAGACGAAGGAGCCGCAAAGAAGTTATTACGGGATGAATAATCCCTCAATATAGATATCTCTCACTTATTTAAA” the “cleaved RNA product abundance” value [2] was 0.351.

With “ACAGACGAAGGAGCCGCAAAGAAGTTATTACGGGATGAATAATCCCTCGATATAAATATCTCTCACTTATTTAAA” the “cleaved RNA product abundance” value [2] was 0.259.

For “ACAGACGAAGGAGCCGCAAAGAAGTTATTACGGGATGAATAATCCCTTAATATAAATATCTCTCACTTATTTAAA”, the “cleaved RNA product abundance” value [2] was 1.47.

With “ACAGACGAAGGAGCCGCAAAGAAGTTATTACGGGATGAATAATGCCTCAATATAAATATCTCTCACTTATTTAAA” the “cleaved RNA product abundance” value [2] was 0.128.

With “ACAGACGAAGGAGCCGCAAAGAAGTTATTACGGGATGAATCATCCCTCAATATAAATATCTCTCACTTATTTAAA” the “cleaved RNA product abundance” value [1] was 0.316.

For “ACAGACGAAGGAGCCGCAAAGAAGTTATTACGGGATGAATGATCCCTCAATATAAATATCTCTCACTTATTTAAA”, the “cleaved RNA product abundance” value [2] was 0.247.

“ACAGACGAAGGAGCCGCAAAGAAGTTATTACGGGATGATTAATCCCTCAATATAAATATCTCTCACTTATTTAAA” was tested, and the “cleaved RNA product abundance” value [2] was 0.204.

With “ACAGACGAAGGAGCCGCAAAGAAGTTATTACGGGTTGAATAATCCCTCAATATAAATATCTCTCACTTATTTAAA” the “cleaved RNA product abundance” value [1] was 0.087 and the “cleaved RNA product abundance” value [2] was 0.16.

In the case of “ACAGACGAAGGAGCCGCAAAGAAGTTATTACGGTATGAATAATCCCTCAATATAAATATCTCTCACTTATTTAAA”, the “cleaved RNA product abundance” value [2] is reported as 0.141.

In the case of “ACAGACGAAGGAGCCGCAAAGAAGTTATTACGTGATGAATAATCCCTCAATATAAATATCTCTCACTTATTTAAA”, the “cleaved RNA product abundance” value [1] is reported as 0.0928 and the “cleaved RNA product abundance” value [2] is reported as 0.113.

In the case of “ACAGACGAAGGAGCCGCAAAGAAGTTATTACTGGATGAATAATCCCTCAATATAAATATCTCTCACTTATTTAAA”, the “cleaved RNA product abundance” value [2] is reported as 0.199.

With “ACAGACGAAGGAGCCGCAAAGAAGTTATTAGAGGATGAATAATCCCTCAATATAAATATCTCTCACTTATTTAAA” the “cleaved RNA product abundance” value [2] was 0.301.

With “ACAGACGAAGGAGCCGCAAAGAAGTTATTAGGAGATGAATAATCCCTCAATATAAATATCTCTCACTTATTTAAA” the “cleaved RNA product abundance” value [2] was 0.24.

For “ACAGACGAAGGAGCCGCAAAGAAGTTATTAGGGCATGAATAATCCCTCAATATAAATATCTCTCACTTATTTAAA”, the “cleaved RNA product abundance” value [2] was 0.132.

In the case of “ACAGACGAAGGAGCCGCAAAGAAGTTATTAGGGGAAGAATAATCCCTCAATATAAATATCTCTCACTTATTTAAA”, the “cleaved RNA product abundance” value [1] is reported as 0.278.

“ACAGACGAAGGAGCCGCAAAGAAGTTATTAGGGGATGAATAATACCTCAATATAAATATCTCTCACTTATTTAAA” was tested, and the “cleaved RNA product abundance” value [2] was 0.211.

In the case of “ACAGACGAAGGAGCCGCAAAGAAGTTATTAGGGGATGAATAATCACTCAATATAAATATCTCTCACTTATTTAAA”, the “cleaved RNA product abundance” value [1] is reported as 0.114 and the “cleaved RNA product abundance” value [2] is reported as 0.112.

In the case of “ACAGACGAAGGAGCCGCAAAGAAGTTATTAGGGGATGAATAATCCCTCAAAATAAATATCTCTCACTTATTTAAA”, the “cleaved RNA product abundance” value [1] is reported as 0.351 and the “cleaved RNA product abundance” value [2] is reported as 0.476.

For “ACAGACGAAGGAGCCGCAAAGAAGTTATTAGGGGATGAATAATCCCTCAATATAAATATCTCTCACTTATTTAAA”, the “cleaved RNA product abundance” value [1] was 0.699, the “cleaved RNA product abundance” value [2] was 0.718 and the “cleaved RNA product abundance” value [3] was 0.377.

With “ACAGACGAAGGAGCCGCAAAGAAGTTATTAGGGGATGAATAATCCCTGAATATAAATATCTCTCACTTATTTAAA” the “cleaved RNA product abundance” value [2] was 0.371.
